Test results taken from the DeepSol protein solubility set.

Test: soluble on expression in E. coli; label from the status in PepcDB or PDB records

| Sequence | soluble on expression in E. coli |
| --- | --- |
| MGSDKIHHHHHHMQINRLFEIIYILLENRTITAAELAERFEVSARTIYRDVEILAQGGMPIYMSKGKGGGISLLPDFILNKAVLTEEEKSEILSSLQAFNAVNLSKSETALSKLTSMLGAKNTDWIEVDFSSWGHFENDRAYFENIKTAIIEKKIITFMYASGKAEKLLREVLPLKLVFKGAAWYLYGYCTLRRDYRFFKLRRITELAVTDTGFEMKTPETIFAGQKLDTGTYLKAKLLISKTMAFRVYDEISSYEIDEKGDFVCRLYLPDIATLCTYAASFGEHCIILSPEQAVAEMKRRLQNSLKNYS | not soluble |
| MCIAIPGKMTAIVDENTATIDMGGICRDVNMALMGGAEESMIGKHFLVHVGYAISEISEEESEETMRLLKIMAGLEEIDSFE | soluble |
| MPSSGQLYGDEERELTPTPAIPEEGVYEVKYSNRRTNVVRLLPNGFQERKLRRLANLSAKLFNEVNFERRQQFFHEGKVNIEETYKKYYEKYKVILGVNAQAVLNKNNEAWSSFFSLLKLKKEGKLPPHMNHVSPPGYWKDREAGKRKQILVIRQDRYKVDAENHKLILKDFDMEIDFIGRLKWYGKQGRLEIIFDETRNAWYAHIPIEVGVEETKAGKKSKHVVKGERKSIQISKPKGNKVASIDLGINVIASVVVNDGTWLLYKGVRTKEDYFYFQKRIAEVQSLADRTRNIGEYDAYLELLREKRRLFKKLTRRLTHLYRNLASHLIETLYELGVSTIYLGYPFNIVQEKGNKFTVNMWSYRKLMESIELKAQEYGMKVFEVVEYNTSKYCAYHDVEVKRNPRGVINCPLGHKLHSDLNGALNILKKALGVIVNAVKKPLSFIVDHNRVAPIKGCNPLEHHHHHH | not soluble |
| MRDAALRYPNILFDLDGTLTDPREGITRSVQFALARLGIDEPDLARLEHFIGPPLLQCFMQTYGFDEARAWEAVNHYRERFRVTGLYENRVFDGIPELLEALVGRGHTLYVATSKPGVFAREIARHFAFDRHFKAIYGSELDGTRTHKEELIRHLLDSEGLAAEHCLMIGDRMHDLLGASRNGVACIGVGYGFGSEDELRAHQPTHYCADLAALRQVLESH | not soluble |
| VRSRNGGATKIVREHYLRSDIPCLSRSCTKCPQIVVPDAQNELPKFILSDSPLELSAPIGKHYVVLDTNVVLQAIDLLENPNCFFDVIVPQIVLDEVRNKSYPVYTRLRTLCRDSDDHKRFIVFHNEFSEHTFVERLPNETINDRNDRAIRKTCQWYSEHLKPYDINVVLVTNDRLNREAATKEVESNIITKSLVQYIELLPNADDIRDSIPQMDSFDKDLERDTFSDFTFPEYYSTARVMGGLKNGVLYQGNIQISEYNFLEGSVSLPRFSKPVLIVGQKNLNRAFNGDQVIVELLPQSEWKAPSSIVLDSEHFDVNDNPDIEAGDDDDNNESSSNTTVISDKQRRLLAKDAMIAQRSKKIQPTAKVVYIQRRSWRQYVGQLAPSSVDPQSSSTQNVFVILMDKCLPKVRIRTRRAAELLDKRIVISIDSWPTTHKYPLGHFVRDLGTIESAQAETEALLLEHDVEYRPFSKKVLECLPAEGHDWKAPTKLDDPEAVSKDPLLTKRKDLRDKLICSIDPPGCVDINDALHAKKLPNGNWEVGVHIADVTHFVKPGTALDAEGAARGTSVYLVDKRIDMLPMLLGTDLCSLKPYVDRFAFSVIWELDDSANIVNVNFMKSVIRSREAFSYEQAQLRIDDKTQNDELTMGMRALLKLSVKLKQKRLEAGALNLASPEVKVHMDSETSDPNEVEIKKLLATNSLVEEFMLLANISVARKIYDAFPQTAMLRRHAAPPSTNFEILNEMLNTRKNMSISLESSKALADSLDRCVDPEDPYFNTLVRIMSTRCMMAAQYFYSGAYSYPDFRHYGLAVDIYTHFTSPIRRYCDVVAHRQLAGAIGYEPLSLTHRDKNKMDMICRNINRKHRNAQFAGRASIEYYVGQVMRNNESTETGYVIKVFNNGIVVLVPKFGVEGLIRLDNLTEDPNSAAFDEVEYKLTFVPTNSDKPRDVYVFDKVEVQVRSVMDPITSKRKAELLLK | soluble |
| MSLAIQLGKDYTMLSTPQPVADPKKVEVIEFFSYHCIHCYDDDPAFNAWSKTLPADVSFRKEQIVWQKSMEGFARMFATFNATGTFDKLHRAAFDAQIKQRVDLSKPEQFTGWIKQQKGVDSAKLLQTYNSFGINAQVARATKITRDYQIQGTPTVIVNGKYVVVTATPERMIQVMNELVAKAREGHHHHHH | soluble |
| MGSSHHHHHHSSGRENLYFQGHMMSGHNKWANIKHRKMAQDAKKSKIFTKLIREIIVAAREGGGNIETNPRLRAAVERARAENMPKENIERAIKRGTGELEGVDYQEVIYEGYAPGGVAVYIRALTDNKNRTAQELRHLFNKYGGSLAESGSVSWIFERKGVIEISRDKVKDLEELMMIAIDAGAEDIKDAEDPIQIITAPENLSEVKSKLEEAGYEVEAKVTFIPKNTVKVTGKDAEKVLEFLNALEDMDDVQEVYSNFEMDDKEMEEILSRLEG | soluble |
| MEKDHSSLFYYDQYSKFSRSSQGCRSLNKFSRFNNFRTSACFFDASKPKSDVQPFKKIRYSSEHGCLTMSFDSPSSCPSTSFLCDLSQNLVRGNAHIPKFYTRDLISTIGSRDHYSVDLIPKFGENTSIMKDFKDWGTDLSLQM | not soluble |
| MSLNNMRLFKKSLLAVTVTLATQQAFAAGFQLNAQSATGLGRAFAGDAVIADNAAVMSRNPAAMALFDEMALSLGFETITTMIDVKNVSYRGVLGNSVSVQDTDDVGGTSVAPNIHLIVPVNEQFAWGVNAYSNFGTKTEFSDSYPASEYGGLTDVKSFNLGLAGSYRVNKEWSFGAGLDLIYGQGTMKRIAGTSFPASTIVVNPTTVIPARGTSLLNVDKADGWAVGFNLGTVYEMDENNRFGLSYRYSPEFKAKDDYGQEITLPLPDIAEFSGFHKIENTQFAVHYSVQWIGWSAFDKIEFRNLVTSRSSVGALTKGSYDKMYEWQDGWHYSIGGTYYLNSDWTLRAGYMYDTSAQDSRTSISVPDSDRQWLSAGFTYNIDDKSNVDFGFTYLMGKDVAVSENDAGSKLTATTHADAILLGLQYSRTFEGGSHHHHHH | soluble |
| MSLINPIDPAARRPQTTVQPSTPPQAKPKPLAATQVLPAQSVLNLAQSELGTDMQELGSIFPVEESCAETLENMSFALGTQARERMRGLSSSADRARPRSMMQRLAKQVSATAPDHLEELRQRVPGIEAVEEVDDLLNSLRQHQFDAGEMALLLAAMLGKDGLSPTRRRRLEEALDRVMDDEDWALQLFSHLEFGAVGKSGLAELRRLYQRAASRQSGLVYWFGQFRQMDDRQRKLKTLIRALAFELSAQGGATDIRLAAVITDLKRVLQFLGMEDHCDRVAKALAIPELDGNRIIEELLEIIQQSWVYPDWLSSRADALMPEEHSRHGYARRMGELVKLLPDDCFEDIDQRETILAAFLEYQEQLADEEEGHHHHHH | soluble |
| MGSDKIHHHHHHMMQGFLLQTQSIRDEDLIVRVLTKNQLKTLYRFYGKRHSVLNVGRKIDFEEENDDKFLPKLRNILHLGYIWEREMERLFFWQRFCALLFRHLEGVHSLDSVYFDTLDDGANKLAKQHPLRVILEMYATLLNFEGRLQSYNSCFLCDAKLERSVALAQGFILAHPSCLKAKSLNLEKIQAFFRTQSTIDLETEEVEELWRTLNLGF | not soluble |
| MSLTKKDVIKLLEQIATYMELKGENTFKISAYRKAAQSLELDERPLDEISDVTELKGIGKGVAEVINDYRETGESQYLQQLQEEVPEGLIPLLKIQGLGSKKIAKLYKELNIVDKASLQVACENGKVSELSGFAKKTEQNILEAVKQLGAKKDRYPIDQMRRLNQEIIDYIDTLNYIDQYSSAGSFRRFKEMSKDLDFIISTDNPKAVQQQLLNIPNKVKEVAVGNTKVSLELAYDDETIGVDFRLIEPRAFYHTLQHFTGSKEHNIRIRQLAKARDEKVSEYGIEQADGTLIQYDSEAKIYEHFNVNFIPPAMREDGSEFDKDLSNIITLDDINGDIHMHTTYSDGAFSIRDMVEANIAKGYKFMVITDHSQSLRVANGLQVERLLRQNEEIKALDKEYSEIDIYSGTEMDILPDGSLDYDDEILAQLDYVIGAIHQSFNQSEEQIMERLANACRNPYVRHIAHPTGRIIGRRDGYKPNIEQLMALAEETNTVLEINANPHRLDLNAEIVRKYPNVKLTINTDAHHTNHLDFMNYGVATAQKGFVTKDRVINALSREAFKDFIENNIKLKKEGHHHHHH | soluble |
| MGSDKIHHHHHHMLDPSLLGHRFRRRPWAMFEVLTPLHIGNGNELTPVDFYPLGDRIIVLDTEKLINDLLRLGVEVEELLDFLRNPPGSLYLWRGYLEKLHLDPRNYARYSLRIRGELGRESSRIKEFIKIKGKPYIPGTSLKGAIRTAVLYKVLKDCGDVPTVVEALGKYGKTTGNIIRAITHPGNQDLLDYYLFYLGRGNVRGKQADDILEAIVFGFEAERRFRYEPKRDPMKALIVRDSRLIPLDNLSVYEVRVVGWGSSIPIWVEALDPGTRFEAEVKVDRELLRIGSDYFNGLLWHCLAGEDFEEFVWKAVEEFYGELAKLDNVKERDVIRLGWGSGWISMTVGILLMRKRGWERVRRKLGLGKNPHTNKIVERFPKTKRLANGQPMGWIKI | not soluble |
| MLQKLIQILRRNEYVKNVYKNTVSNFIETSIPEITPFNARTSSIKGKRLNLLVPSINQEHMFGGISTALKLFEQFDNKKFKKRIILTDATPNPKDLQSFKSFKYVMPEEDKDFALQIVPFNDRYNRTIPVAKHDIFIATAWWTAYAAQRIVSWQSDTYGIPPNKILYIIQDFEPGFYQWSSQYVLAESTYKYRGPQIAVFNSELLKQYFNNKGYNFTDEYFFQPKINTTLKNYINDKRQKEKIILVYGRPSVKRNAFTLIVEALKIFVQKYDRSNEWKIISVGEKHKDIALGKGIHLNSLGKLTLEDYADLLKRSSIGISLMISPHPSYPPLEMAHFGLRVITNKYENKDLSNWHSNIVSLEQLNPENIAETLVELCMSFNNRDVDKKESSNMMFYINEFNEFSFIKEIEEKL | soluble |
| MTKRIEIKPATAADQAALAEIYLVDRQQDFPWVTDPQLQDFNEDSRGEFVLVAWIDGQRAGFCSLYRLANFIHLLFVAPDFRHLKVGERLLTEMRQYATEPLTLKCVMANENALRFYAQVGFRIVKADADALPPNYTLRDTHTEQYVALVDVMANERKLN | soluble |
| MLILSFLCPAFLNAQIVTDERMFSFEEPQLPACITGVQSQLGISGAHYKDGKHSLEWTFEPNGRLELRKDLKFEKKDPTGKDLYLSAFIVWIYNEQPQDAAIEFEFLKDGRKCASFPFGINFKGWRAAWVCYERDMQGTPEEGMNELRIVAPDAKGRLFIDHLITATKVDARQQTADLQVPFVNAGTTNHWLVLYKHSLLKPDIELTPVSDKQRQEMKLLEKRFRDMIYTKGKVTEKEAETIRKKYDLYQITYKDGQVSGVPVFMVRASEAYERMIPDWDKDMLTKMGIEMRAYFDLMKRIAVAYNNSEAGSPIRKEMRRKFLAMYDHITDQGVAYGSCWGNIHHYGYSVRGLYPAYFLMKDVLREEGKLLEAERTLRWYAITNEVYPKPEGNGIDMDSFNTQTTGRIASILMMEDTPEKLQYLKSFSRWIDYGCRPAPGLAGSFKVDGGAFHHRNNYPAYAVGGLDGATNMIYLFSRTSLAVSELAHRTVKDVLLAMRFYCNKLNFPLSMSGRHPDGKGKLVPMHYAIMAIAGTPDGKGDFDKEMASAYLRLVSSDSSSAEQAPEYMPKVSNAQERKIAKRLVENGFRAEPDPQGNLSLGYGCVSVQRRENWSAVARGHSRYLWAAEHYLGHNLYGRYLAHGSLQILTAPPGQTVTPTTSGWQQEGFDWNRIPGVTSIHLPLDLLKANVLNVDTFSGMEEMLYSDEAFAGGLSQGKMNGNFGMKLHEHDKYNGTHRARKSFHFIDGMIVCLGSDIENTNMDYPTETTIFQLAVTDKAAHDYWKNNAGEGKVWMDHLGTGYYVPVAARFEKNFPQYSRMQDTGKETKGDWVSLIIDHGKAPKAGSYEYAILPGTDRKTMTAFAKKPAYSVLQQDRNAHILESPSDRITSYVLFETPQSLLPGGLLQRTDTSCLVMVRKESADKVLLTVAQPDLALYRGPSDEAFDKDGKRMERSIYSRPWIDNESGEIPVTVTLKGRWKVVETPYCKVVSEDKKQTVLRFLCKDGASYEVELEKLEHHHHHH | soluble |
